Reference: US20260201038A1 (CELLABMED, published 2026)
Blank lines part the entries; values can stand above or below the molecule they belong to.

Tests used:
[1] = target: B7-H3 on human cancer cells (human) (UniProt Q5ZPR3); test: cell-based or functional assay
[2] = target: T1, recombinant human 4Ig B7-H3 (human, UniProt Q5ZPR3 29-461, limits assumed); test: indirect ELISA, antigen coated at 1 ug/mL, anti-human Fc-HRP, absorbance at 450 nm
T1 construct: Bought recombinant protein (Sino Biological); also called 4lg B7-H3
T1 sequence: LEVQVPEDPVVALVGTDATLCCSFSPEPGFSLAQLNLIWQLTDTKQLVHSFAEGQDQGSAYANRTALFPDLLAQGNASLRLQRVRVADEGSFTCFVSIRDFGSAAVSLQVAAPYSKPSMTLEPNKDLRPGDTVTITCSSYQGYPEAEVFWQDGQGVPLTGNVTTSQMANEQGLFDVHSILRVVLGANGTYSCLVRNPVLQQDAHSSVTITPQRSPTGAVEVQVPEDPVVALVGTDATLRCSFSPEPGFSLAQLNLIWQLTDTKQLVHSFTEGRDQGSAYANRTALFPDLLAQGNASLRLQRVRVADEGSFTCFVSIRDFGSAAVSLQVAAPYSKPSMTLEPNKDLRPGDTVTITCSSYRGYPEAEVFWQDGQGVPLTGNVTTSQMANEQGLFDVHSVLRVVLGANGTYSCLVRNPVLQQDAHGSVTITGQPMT
Method: (§1) The binding ability of 2D IgG prepared in Example 2 for recombinant B7-H3 protein was investigated by indirect ELISA. For indirect ELISA, recombinant human 4lg B7-H3, recombinant human 2lg B7-H3 and recombinant mouse B7-H3 were diluted respectively to 1 μg/mL in 50 μL of PBS and adsorbed overnight onto a 96-well immunoplate (Corning, USA) by storing at 4° C. After reaction with a buffer solution containing 3% bovine serum albumin at room temperature for 1 hour, followed by washing 3 times with a buffer solution containing 0.5% Tween 20, each well was treated with 50 μL of the antibodies diluted serially (0.0001, 0.0003, 0.001, 0.003, 0.01, 0.03, 0.1, 0.3, 1, 3 and 10 nM). For antigen-antibody binding, the mixture was reacted at room temperature for 2 hours, and then washed 3 times with a buffer solution containing 0.5% Tween 20. After treating each well with 50 μL of anti-human immunoglobulin Fc-HRP antibodies (Jackson Immunoresearch, USA) diluted to 1:3,000, reaction was conducted at room temperature for 1 hour. […] As a result of measuring absorbance at 450 nm using a spectrophotometer (Biotek, USA), it was confirmed that 2D IgG binds to B7-H3, and the binding ability was in the order of 4lg B7-H3, 2lg B7-H3 and mouse B7-H3 (FIG. 2a).

[3] = target: T2, recombinant human 2Ig B7-H3 (human, UniProt Q5ZPR3 29-466); test: as above
T2 construct: Bought recombinant protein (R&D Systems); also called 2lg B7-H3
T2 sequence: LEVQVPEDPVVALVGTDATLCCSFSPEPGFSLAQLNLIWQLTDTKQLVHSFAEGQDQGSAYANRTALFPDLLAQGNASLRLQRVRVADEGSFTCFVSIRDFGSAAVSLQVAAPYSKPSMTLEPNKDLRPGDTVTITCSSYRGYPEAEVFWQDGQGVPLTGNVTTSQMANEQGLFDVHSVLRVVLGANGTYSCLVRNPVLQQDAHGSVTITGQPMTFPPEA
Method: as §1

[4] = target: T3, human 4Ig B7-H3 expressed on Raji cells (human) (UniProt Q5ZPR3); test: flow cytometry on Raji cells expressing 4Ig B7-H3; the vector control Raji cells show < 2%
T3 sequence: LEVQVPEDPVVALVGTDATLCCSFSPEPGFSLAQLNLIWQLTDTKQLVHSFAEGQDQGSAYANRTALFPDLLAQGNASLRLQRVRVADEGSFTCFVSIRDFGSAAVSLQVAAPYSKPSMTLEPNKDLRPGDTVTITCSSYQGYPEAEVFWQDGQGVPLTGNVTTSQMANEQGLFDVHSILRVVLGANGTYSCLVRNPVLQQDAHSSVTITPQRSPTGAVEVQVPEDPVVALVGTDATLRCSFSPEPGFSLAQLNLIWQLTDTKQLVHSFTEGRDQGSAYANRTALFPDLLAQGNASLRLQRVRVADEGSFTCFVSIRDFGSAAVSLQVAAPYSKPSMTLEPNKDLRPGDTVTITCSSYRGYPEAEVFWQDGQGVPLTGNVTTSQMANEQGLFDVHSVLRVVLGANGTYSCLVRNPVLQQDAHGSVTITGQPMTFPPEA

Molecule: enoblituzumab with wild-type Fc (antibody)
T cell-mediated A549 cell-killing effect (GFP fluorescence of A549 cells after 48 h co-culture with activated PBMCs; negative control group = 100) [1]: 77.3

EC50 (read off the curve) [2]: ~0.006 nM
EC50 (read off the curve) [3]: ~0.2 nM
B1: 2D IgG (antibody, V domains shown)
VH: AVTLDESGGGLQTPGGGLSLVCKASGFDFSSYPMVWVRQAPGKGLEYVASINSGGSWTGYGAAVKGRATISRDNGQSTVRLQLNNLRAEDTATYYCARAYGAATIDAWGHGTEVIVSS
VL: ALTQPSSVSANLGGTVKITCSGGSIGYGWYQQKAPGSAPVTVIYYNDRRPSDIPSRFSGSKSGSANTLTITGVQADDEAIYYCGSADSSSTYTGIFGAGTTLTVL
notes: Chicken/human chimeric complete antibody (full-length IgG); also called 2D complete antibody; parent antibody (2D)

% of cells in the positive gate (P3) [4]: > 70%
B2: enoblituzumab (antibody, part only; not given: Constant regions, V domains shown, not shown: another chain or arm of the molecule)
VH: EVQLVESGGGLVQPGGSLRLSCAASGFTFSSFGMHWVRQAPGKGLEWVAYISSDSSAIYYADTVKGRFTISRDNAKNSLYLQMNSLRDEDTAVYYCGRGRENIYYGSRLDYWGQGTTVTVSS
VL: DIQLTQSPSFLSASVGDRVTITCKASQNVDTNVAWYQQKPGKAPKALIYSASYRYSGVPSRFSGSGSGTDFTLTISSLQPEDFATYYCQQYNNYPFTFGQGTKLEIK
